According to patent US7910344B2, “Proteins having tyrosinase activity” (Valtion teknillinen tutkimuskeskus, priority 2005, dated 2011):
Entries after “also recorded” stand apart in the source; their conditions may differ.

How the values were obtained:
[1] = pH optimum of the tyrosinase by oxygen consumption measurements; type: biochemical; details: 15 mM L-Dopa, 4.3 μg purified tyrosinase
Procedure: pH optimum for the tyrosinase was studied by oxygen consumption measurements. Measurements were performed with a single channel oxygen meter (Precision sensing GmbH, Germany) containing fiber-optic oxygen minisensors with measurement range 0-100% oxygen. L-Dopa in 15 mM concentration, dissolved in 0.1 M sodium phosphate buffer, pH 7.0, was used as substrate. Reactions were carried out with 1.8 ml substrate solution and with 4.3 μg of the purified T. reesei tyrosinase. Three different buffers were used according to their buffer capacity. McIlvaine buffer was used within a pH range of 2-7, Tris-HCl buffer (50 mM) within a pH range 7-9 and borate buffer (12.5 mM) within a pH range of 8-9.5. The pH optimum of TYR2 is at 8-8.5. The enzyme has relatively high activity within a quite wide pH range, 5-9. […] In the measurements with Tris-HCl buffer in pH 8, 8.5 and 9.0 also a blank test without enzyme addition was performed to correct the effect of auto-oxidation in results. The pH optimum of the tyrosinase seemed to be dependant on the buffer.

[2] = system: salt soluble proteins (SSP) of chicken breast muscle myofibrils; assay: Cross-linking of chicken myofibril salt soluble proteins followed by SDS-PAGE
Procedure: Changes in the molecular weight of the isolated salt soluble proteins (SSP) of chicken breast muscle myofibrils caused by TYR2 were analysed by SDS-PAGE. SPP were isolated according to Xiong and Brekke, 1989. For enzyme treatment SSP was suspended in 50 mM Na-phosphate buffer, pH 7, containing 0.6 M NaCl to the protein concentration of 3 mg/ml. 120 nkat or 240 nkat of TYR2 per gram of protein was added to the suspension. Control suspension was treated in a similar way but without enzyme addition. Reaction mixture was incubated at 30° C. Samples were drawn at the time points of 2 min, 1 hour, 3 hours and 24 hours. SDS-PAGE sample buffer was added and the samples were heated in a boiling water bath. 20 μg of protein from each sample was loaded onto 12% Tris-HCl polyacryl amide gels. SDS-PAGE was performed according to Laemmli, 1970.

[3] = Stability of the enzyme at different pH-values (residual activity on L-Dopa); type: physicochemical; details: McIlvaine buffer, room temperature
Procedure: The stability of the enzyme at different pH-values was determined in McIlvaine, 50 mM Na2HPO4-25 mM citric acid, buffer by incubating the enzyme solution in different pH-values at room temperature. The residual tyrosinase activity was determined by measuring the activity of the enzyme solutions with L-Dopa as substrate.

α-casein = assay: Cross-linking of model proteins followed by changes in MW on SDS-PAGE
Procedure: The cross-linking ability in model proteins of TYR2 was also analyzed by following changes in MW on SDS-PAGE. […] Details are given in examples 8 and 9.

[4] = Kieffer extensibility test of wheat dough; details: 1 and 10 nkat/g flour, resting 15-45 min, about 22° C.
Procedure: The influence of TYR2 on the large deformation rheology of wheat dough was investigated by using Kieffer extensibility rig (Stable Micro Systems, Ltd. United Kingdom). Dough extensibility and resistance to extension were measured as a function of enzyme dosage and dough's resting time.
Wheat flour was mixed with Farinograph (Brabender, Germany) using 12 g flour and 7.2 ml liquid phase (60%). Tyrosinase (1 and 10 nkat/g flour) was added to water right before mixing with flour. Mixing time was 4 min. Subsequently, dough was placed into a mould to produce approximately 10-12 test strings. The pressed mould was kept at room temperature for 15-45 min to allow stress relaxation. In the Kieffer tests, dough strings were centrally extended until the elastic limit of the string was exceeded and it ruptured. Maximum resistance Rmax, maximum extensibility Emax and extensibility Ex at Rmax were determined by recording the peak force and the distance at the maximum and at the extension limit. All dough preparations, enzyme treatments and measurements were performed at room temperature, approximately at 22° C.

Isoelectric focusing = type: physicochemical; details: purified TYR2, Coomassie Blue staining, pH range 3.5-9.5
Procedure: The isoelectric point (pI) of the enzyme from culture supernatant and purified enzyme was determined by isoelectric focusing within a pH range of 3.5-9.5 (Ampholine PAGplate 3.5-9.5 for IEF, Amersham Bioscience) on an LKB 2117 Multiphor II Electrophoresis System (LKB Pharmacia, Bromma, Sweden) according to manufacturer's instructions. Bands containing tyrosinase activity were visualized by staining the gel with 15 mM L-Dopa in 0.1 M sodium phosphate buffer (pH 7.0) and proteins by Coomassie Blue staining. […] Under native conditions in isoelectric focusing both the culture filtrate and the purified tyrosinase didn't show a clear band, when stained with L-Dopa, instead the activity was observed as a brown zone at about pH 9.

[5] = system: chicken breast myofibrils; assay: Gel forming of chicken myofibril matrix, storage modulus (G′), Bohlin Rheometer; details: 240 nkat TYR2/g protein, 25, 30 and 40° C., 3 hours, pH 6
Procedure: Ability of TYR2 to form cross-links in a chicken myofibril matrix was also investigated as a development of storage modulus (G′) measuring gel forming ability at low deformation. Measurements were carried out during heating at constant temperature using a Bohlin Rheometer. Chicken breast myofibrils were isolated according to Xiong and Brekke (1989) omitting EDTA and NaN3 from the isolation buffer. Isolated myofibrils were suspended in 50 mM Na-phosphate buffer, pH 6, supplemented with 0.30 M NaCl to the protein concentration of 40 mg/ml. Suspensions were treated with 240 nkat of TYR2 per gram of protein at 25° C., 30° C. and 40° C. for 3 hours. Control samples were treated in a similar way but without enzyme.

caseinate = assay: Caseinate gel hardness by Texture Analyzer; details: 3% caseinate, 0.4% GDL, 20 nkat/g protein TYR2, 22 hours, room temperature
Procedure: 3% of commercial caseinate was mixed in water and 0.4% GDL (glucono-delta-lactone) and 20 nkat/g protein of TYR2 was added to the mixture. It was allowed to rest for 22 hours at room temperature, whereafter the gel hardness was measured by Texture Analyzer (FIG. 6).

B1: TYR2: extracellular tyrosinase of Trichoderma reesei encoded by tyr2, SEQ ID NO:4, 571 amino acids, C-terminally processed (protein, listed as Trichoderma reesei)
chain: MLLSASLSALALATVSLAQGTTHIPVTGVPVSPGAAVPLRQNINDLAKSGPQWDLYVQAMYNMSKMDSHDPYSFFQIAGIHGAPYIEYNKAGAKSGDGWLGYCPHGEDLFISWHRPYVLLFEQALVSVAKGIANSYPPSVRAKYQAAAASLRAPYWDWAADSSVPAVTVPQTLKINVPSGSSTKTVDYTNPLKTYYFPRMSLTGSYGEFTGGGNDHTVRCAASKQSYPATANSNLAARPYKSWILVTDTESGPQYDVLTNSQNFADFASTSGPGINVEQIHNAIHWDGACGSQFLAPDYSGFDPLFFMHHAQVDRMWAFWEAIMPSSPLFTASYKGQSRFNSKSGSTITPDSPLQPFYQANGKFHTSNTVKSIQGMGYSYQGIEYWQKSQAQIKSSVTTIINQLYGPNSGKKRNAPRDFLSDIVTDVENLIKTRYFAKISVNVTEVTVRPAEINVYVGGQKAGSLIVMKLPAEGTVNGGFTIDNPMQSILHGGLRNAVQAFTEDIEVEILSKDGQAIPLETVPSLSIDLEVANVTLPSALDQLPKYGQRSRHRAKAAQRGHRFAVPHIPPL
modifications: C-terminally processed
pH range of relatively high activity [1]: 5-9 | pH optimum ([1]; McIlvaine, Tris-HCl, borate buffers): 8-8.5 | Detectable electrophoretic changes of SSP ([2]; 120 or 240 nkat TYR2/g protein, 30° C., pH 7, up to 24 h): progressive disappearance of the myosin band of ˜200 kDa; also recorded: progressive disappearance of the band of ˜36 kDa; also recorded: appearance of large molecular weight protein products (>200 kDa) | Cross-linking ability (changes in MW on SDS-PAGE) ([2]; chicken myofibril): able to cross-link | pH stability [3]: good stability at neutral and alkaline pH | Cross-linking ability (changes in MW on SDS-PAGE) (α-casein): able to cross-link | Dough extensibility Ex at Rmax [4]: decreased the dough extensibility Ex at Rmax | Maximum resistance Rmax of dough [4]: increased the maximum resistance Rmax of dough | Isoelectric point (bands in isoelectric focusing) (Isoelectric focusing): ~9 | Storage modulus (G′), gel forming [5]: greater increase in G′ | Hardness of caseinate gel (caseinate): doubled the hardness of the caseinate gel
